The assay deals with Eaf3^MRG–Rco1^PHD1–SID complex (S. cerevisiae) (UniProt Q12432). As to the kind of experiment: ITC; H3 1–12 peptides with the Eaf3^MRG–Rco1^PHD1–SID complex or with Rco1^PHD1 alone. For orientation: In ITC the heat of successive injections is recorded.
Sequence of Eaf3^MRG–Rco1^PHD1–SID complex (S. cerevisiae) (Q12432 218-401, chain 1 of 2): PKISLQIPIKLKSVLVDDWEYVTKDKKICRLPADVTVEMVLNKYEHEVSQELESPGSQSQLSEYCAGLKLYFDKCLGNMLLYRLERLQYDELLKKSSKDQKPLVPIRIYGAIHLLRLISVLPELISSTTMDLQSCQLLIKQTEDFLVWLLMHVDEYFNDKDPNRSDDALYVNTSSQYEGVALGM
Sequence of Eaf3^MRG–Rco1^PHD1–SID complex (S. cerevisiae) (Q04779 240-376, chain 2 of 2, further chain): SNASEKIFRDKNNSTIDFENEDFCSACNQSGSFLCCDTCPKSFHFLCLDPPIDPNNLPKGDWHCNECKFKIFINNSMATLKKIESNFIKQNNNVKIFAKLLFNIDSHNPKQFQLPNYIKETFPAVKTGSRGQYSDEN

For “H3K4me2^1–12 peptide (from UniProt P61830 2-13)”, the Kd is 360 µM. The substance “H3K4me0^1–12 peptide (from UniProt P61830 2-13)” yielded a Kd of 22 µM. With “H3K4me1^1–12 peptide (from UniProt P61830 2-13)” the figure was 65 µM.

For orientation: Kd means a measure of binding affinity in units of concentration. The low end stands for tighter binding, the high end for weaker binding.

The values are drawn from paper PMC10220053.
